Test results from US20260069689A1 (Regeneron, published 2026).

Assays:
[1] = biological target: T1, SARS-COV-2 RBD extracellular domain expressed with a C-terminal mouse IgG2a Fc (SARS-CoV-2); assay: Biacore SPR, mAb captured on anti-hFc, 25 C
[2] = biological target: T1, SARS-COV-2 RBD extracellular domain …; assay: Biacore SPR, mAb captured on anti-hFc, 37 C

Binder	Kd [1]	koff [1]	kon [1]	t½ [1]	Kd [2]	koff [2]	kon [2]	t½ [2]
mAb14283 (antibody, V domains shown) VH: QVQLQESGPGLVKPSGTLSLTCDVSGGSISSNNWWSWVRQRPGKGLQWIGEIYHNENTNYNPSLKSRVIMSIDKSKNQFSLKLTSVTAADTAVYYCARGDVLDWFDPWGQGTLVTVSS VL: QSALTQPASVSGSPGQSTTISCTGTSSDVGGYNYVSWYQQYPGKAPKLMIYDVTNRPSGVSHRFSGSKSGNTASLTISGLQAEDEADYYCSSYTSSSTVIFGGGTKLTVLG	0.0524 nM	8.14e-05 s⁻¹	1.55e+06 M⁻¹ s⁻¹	2.37 h	0.0631 nM	9.59e-05 s⁻¹	1.52e+06 M⁻¹ s⁻¹	2.01 h
mAb14286 (antibody, V domains shown) VH: QVQLVQSGAEVKKPGASVKVSCKASGYTFTDYFIHWVRQAPGQGLEWMGWINPTSGGTNYAQKFRGRVTMTRDTSISTAYVELSRLRSDDTALYYCARDLPFYSDTKQFDYWGQGTLVTVSS VL: QSALTQPASVSGYPGQSITISCTGTSSDVGGYNYVSWYQQHPGKAPKLMIFDVSNRPSGVSNRFSGSKSGNTASLTFSGLQAEDEADYYCSSYTSSSTLVFGGGTKLTVLG	0.222 nM	0.000655 s⁻¹	2.95e+06 M⁻¹ s⁻¹	0.293 h	0.18 nM	0.000528 s⁻¹	2.94e+06 M⁻¹ s⁻¹	0.365 h
mAb14294 (antibody, V domains shown) VH: EVQLVESGGGLVQPGGSLRLSCAASGFTFSNHWMDWVRQAPGKGLVWVSRINSDGSSTDYADSVRGRFTMSRDNAKNTLYLQMSSLRAEDTAVYYCAREGMIFGAVIIPGWYFDLWGRGALVTVSS VL: EIVLTQSPGTLSLSPGERATLSCRASQSVSSSQLAWYQQKPGQAPRLLIYGASSRATGIPDRFSGSGSGTDFTLTISRLEPEDFAVYYCQQYDSFGQGTKLEIKR	0.0294 nM	2.68e-05 s⁻¹	911000 M⁻¹ s⁻¹	7.17 h	0.0386 nM	3.5e-05 s⁻¹	906000 M⁻¹ s⁻¹	5.5 h
mAb15150 (antibody, V domains shown) VH: EVQLVETGGGLIQPGGSLRLSCAAPGFIVSSNYMSWVRQAPGKGLEWVSLLYPGGSTYYADSVKGRFTISRDNSKNTLYLQMNSLRADDTAVYYCARVLPIVEDHFDYWGQGTLVTVSS VL: DIQLTQSPSFLSASVGDRVTITCRASQGMSSYLAWYQKKPGKAPKLLIYGATILQSGVPSRFSGSGSGTEFTLTISSLQPEDFATYYCQQLNSDPLYMYTFGQGTKLEIKR					0.0296 nM	2.8e-05 s⁻¹	946000 M⁻¹ s⁻¹	6.88 h
mAb14315 (antibody, V domains shown) VH: QVQLVQSGAEVKKPGSSVKVSCKASGDTFSTYAINWVRQAPGQGLEWMGRFIHIFGTANYAQKFQGRVTITADESTSTAYMELRSLRSEDTAVYYCARDGVDYGDYRPDYWGQGTLVTVSS VL: EIVLTQSPGTLSLSPGERATLSCRASQSVSSNYLAWYQQKPGQAPRLLIYGASSRATGIPERFSGSGSGTDFTLTISRLEPEDFAVYYCQQYGSSLYTFGQGTKLEIKR	0.0784 nM	6.26e-05 s⁻¹	799000 M⁻¹ s⁻¹	3.07 h	0.0903 nM	7.91e-05 s⁻¹	877000 M⁻¹ s⁻¹	2.43 h
mAb13458 (antibody, V domains shown) VH: EVQLVESGGGLVQPGRSLRLSCAASGFTFDDYAMHWVRQAPGKGLEWVSGISWNSGSIGYADSVKGRFTISRDNAKNSLYLQMNSLRAEDTALYYCAKDIGITTPYWGQGTLVTVSS VL: AIQMTQSPSSLSASVGDRVTITCRASQDIRNDLGWYQQKPGKAPKLLIYSASSLQTGVPSRFSGSGSGTDFTLTISSLHPEDFATYYCLQDYWYTWTFGQGTKVEIKR	0.064 nM	7.55e-05 s⁻¹	1.18e+06 M⁻¹ s⁻¹	2.55 h	0.0784 nM	9.12e-05 s⁻¹	1.16e+06 M⁻¹ s⁻¹	2.11 h
mAb13459 (antibody, V domains shown) VH: EVQLVESGGGLVQPGRSLRLSCAASGFTFDDYAMHWVRQAPGKGLEWVSGISWNSGSIGYADSVKGRFTISRDNAKNSLYLQMNSLRAEDTALYYCAKDIGITTPYWGQGTLVTVSS VL: AIQMTQSPSSLSASVGDRVTITCRASQDIRNDLGWYQQKPGKAPKLLIYSASSLQTGVPSRFSGSGSGTDFTLTISSLHPEDFATYYCLQDYNYVWTFGQGTKVEIKR					0.0939 nM	9.24e-05 s⁻¹	985000 M⁻¹ s⁻¹	2.08 h
mAb14258 (antibody, V domains shown) VH: QLQLQESGPGLVKPSETLSLICTGSGDSISSSHYYWGWIRQPPGKGLEWIGSTYFSGSTYYNPSLKSRVSISVDTSKNQVSLKLISVTAADTAVYYCAREMGATLGDYWGPGTLVTVSS VL: QSVLTQPPSASGTPGQRVTISCSGSSSNIGNNYVYWYQQFPGTTPRLLIYRNNERPSGVPDRFSGSKSGTSASLVISGLRSEDEADYYCAAWDDSLSAHYVFGTGTKVTVLG	3.04 nM	0.000109 s⁻¹	35600 M⁻¹ s⁻¹	1.77 h				
mAb14247 (antibody, V domains shown) VH: QITLKESGPTLVKPTQTLTLTCTFSGFSLSTSAVGVGWIRQPPGKALEWLALIYWDDDKRYSPSLKSRLTITKDTSKNQLVLTMTNVDPVDTATYYCAHHTIQLIFDYWGQGTLVTVSS VL: QSALTQPASVSGSPGQSITISCTATSSDVGNYNYVSWYQQHPGKAPKLMIYEVSNRPSGVSNRFSGSKSGNTASLTISGLQAEDEADYYCSSYTSSSTPLVFGGGTKLTVLG	0.131 nM	0.000156 s⁻¹	1.19e+06 M⁻¹ s⁻¹	1.23 h	0.127 nM	0.00015 s⁻¹	1.18e+06 M⁻¹ s⁻¹	1.28 h
mAb14255 (antibody, V domains shown) VH: QVQLQESGPGLVKPSETLSLTCTVSGGSISGYYWSWIRQPPGKGLDWIGYIYYRGNTNYNPSLKSRVTISVDTSNNQFSLKLSSVTAADTAVYYCARYGEGYGDASGYHFDYWGQGTLVTVSS VL: QSALTQPASVSGSPGQSITISCTGTSSDVGSYNLVSWYQQHPGKAPKLMIYEDSKRPSGVANPFSGSKSGNTASLTISGLQAEDEADYYCSSYAGSSTWVFGGGTKLTVLG	0.0726 nM	0.000159 s⁻¹	2.19e+06 M⁻¹ s⁻¹	1.21 h	0.118 nM	0.00025 s⁻¹	2.12e+06 M⁻¹ s⁻¹	0.77 h
mAb14312 (antibody, V domains shown) VH: EVQLVESGGGLVQPGGSLRLSCAASGFTVSRSYMTWVRQAPGKGLEWVSVIFTGGRTDHADSVKGRFTISRHNSKNTLYLQMNSLRTEDTAVYYCARVAIVGATGAFDIWGQGTMVTVSS VL: QSVLTQPPSVSGAPGQRVTISCTGSSSNIGAGDDVHWYQQLPGTAPKLLIYGNSNRPSGVPDRFSGSKSGTSASLAITGLQAEDEADYYCQSYDSSLSGSVVFGGGTKLTVLG	0.0334 nM	5.6e-05 s⁻¹	1.68e+06 M⁻¹ s⁻¹	3.44 h	0.0347 nM	5.8e-05 s⁻¹	1.67e+06 M⁻¹ s⁻¹	3.32 h
mAb14257 (antibody, V domains shown) VH: EVQLVESGGGLVQPGGSLRLSCAASGFTVSRSYMNWVRQAPGKGLEWVSVVFTGGTTKHTDSVKGRFTISRDNSMNTLYLQMNSLRPEDTAVYYCARVAIVETTGAFDIWGQGTMVTVSS VL: QSVLTQPPSVSGAPGQRVTISCTGTSSNIGADFDVHWYQQFPGTAPKLLIYGHTNRPSGIPDRFSGSKSGTSASLAITGLQAEDEADYYCQSYDSSLSGSVVFGGGTKLTVLG	0.0907 nM	0.000254 s⁻¹	2.81e+06 M⁻¹ s⁻¹	0.757 h	0.121 nM	0.000339 s⁻¹	2.81e+06 M⁻¹ s⁻¹	0.568 h
mAb14289 (antibody, V domains shown) VH: QVQLVQSGPEVKKPGASVKVSCKASGYTFTSYAISWVRQAPGQGLEWMGWISAYNGNTNYAQKLQGRVTMTTDTFTSTAYMELRSLRSDDTAVYYCAVPADHITFDYWGQGTLVTVSS VL: EIVLTQSPGTLSLSPGERATLSCRASQSVSSYLAWYQQKPGQAPRLLIHGASSRATGIPDRFSGSGSGTDFTLTISRLEPEDFAVYYCQQYGSSFLTFGGGTKVEIKR	0.0628 nM	8.95e-05 s⁻¹	1.43e+06 M⁻¹ s⁻¹	2.15 h	0.0907 nM	0.000128 s⁻¹	1.41e+06 M⁻¹ s⁻¹	1.5 h
mAb14313 (antibody, V domains shown) VH: EVQLVESGGGLVQPGRSLRLSCVASGFTFDDSAMHWVRQPPGKGLEWVSGISWNSGIIGYAESVKGRFIISRDNAKNSLFLHMRGLRPEDTAVYYCARDRLELSYYYYGMDVWGQGTTVTVSS VL: not shown	0.0422 nM	9.97e-05 s⁻¹	2.36e+06 M⁻¹ s⁻¹	1.93 h	0.0582 nM	0.000146 s⁻¹	2.52e+06 M⁻¹ s⁻¹	1.32 h
mAb14284 (antibody, V domains shown) VH: QITLKESGPTLVKPTQTLTLTCTFSGFSFSTSGVGVGWIRQPPGKTLEWLALIYWDDDKRYSPSLKSRLTITKDTSKNQVVLTMTNMDPVDTATYFCAHHGIPTIFGYWGQGALVTVSS VL: QSALTQPASVSGSPGQSITISCTGTSSDLGVFNYVSWYQQHPGKAPKLMIYEVTNRPSGVSNRFSGSKSGNTASLTISGLQAEDEADYYCSSYTTSSTVFGGGTKLTVLG	0.0255 nM	2.12e-05 s⁻¹	831000 M⁻¹ s⁻¹	9.08 h	0.027 nM	2.24e-05 s⁻¹	830000 M⁻¹ s⁻¹	8.6 h
mAb14235 (antibody, V domains shown) VH: QITLKESGPTLVKPTQTLTLTCTFSGFSLNTGGVGVGWIRQPPGNALEWLALIYWDDDKRYNPSLKTRLTISKDTSKNQVVLTMTNMDPVDTATYFCAHLTIAVIVDFWGQGTLVTVSS VL: QSALTQPASVSGSPGQSITISCTATSSDVGTYNYVSWFQHHPGKAPKLMIYEVTNRPSGVSNRFSGSKSGNTASLTISGLQAEDEADYYCSSYTTTSIVFGGGTKLTVLG	0.0627 nM	6.89e-05 s⁻¹	1.1e+06 M⁻¹ s⁻¹	2.79 h	0.0612 nM	6.68e-05 s⁻¹	1.09e+06 M⁻¹ s⁻¹	2.88 h
